Data taken from patent US7919461B2, “Erythropoietin receptor peptide formulations and uses” (Affymax, Inc., priority 2005, dated 2011).
Entries after “also recorded” stand apart in the source; their conditions may differ. Bridge positions count the residues as written; N and C are the ends. Square brackets hold non-standard residues; d marks the D form. Ends that are not written are not given here. 1Nal = N[C@@H](Cc1cccc2ccccc12)C(=O)O; Sar = CNCC(=O)O

How the values were obtained:
[1] = Phase II multi-dose once-monthly SC study in pre-dialysis chronic kidney disease patients; assay type: in vivo, human
Description: A multi-center, open-label, sequential dose-finding phase II clinical trial involving patients with chronic kidney disease was performed in order to evaluate the safety and pharmacodynamics of multiple doses of once-monthly (Q4W) subcutaneous (SC) delivery of Peptide I (SEQ ID NO:2). A total of 60 erythropoiesis-stimulating-agent-naïve, pre-dialysis, chronic kidney disease (CKD) patients [hemoglobin (Hgb) levels 9.0-10.9 g/dL, ferritin >100 ug/L and transferrin saturation (TSAT)>20%] were enrolled into three dose cohorts. Patients received up to six once-monthly SC drug doses. The starting doses were 0.025 mg/kg (n=15), 0.050 mg/kg (n=30) and 0.075 mg/kg (n=15). Dose titration was allowed after the first dose, based on patient Hgb levels.
Dose titrations were allowed after the patient's initial dose. Dose adjustments were ±25% of the previous dose, depending on the patient's measured hemoglobin (Hgb) level.

[2] = Phase 1 single IV dose study in normal healthy volunteers, pharmacokinetics; assay type: in vivo, human; conditions: dose normalized, ANOVA
Source text: (§1) Peptide I has been tested in […] in one Phase 1 study. This first-in-human study with Peptide I was a randomized, double-blind, placebo-controlled, single-dose, IV, escalating dose, safety and tolerability trial. The primary objectives of the study were to evaluate the safety and pharmacokinetics of Peptide I, and to establish a pharmacologically active dose (PAD). Cohorts of seven male volunteers were scheduled to receive single doses of Peptide I or placebo in a 5:2 ratio. Cohorts were to be added at increasing dose levels until a PAD, as determined by an increase in hemoglobin from baseline values, was observed, at which point the dose level identified as the PAD would be repeated in another cohort of volunteers.
(§2) The study was initiated in four cohorts were enrolled in a consecutive manner at Peptide I doses of 0.025, 0.05, 0.1 mg/kg, and […], respectively (single dose per cohort). […] As such, the study was terminated.
In the 0.025 mg/kg dose group, Peptide I concentration peaked between 5 and 15 minutes, while tmax approached 1 hour for the 0.1 mg/kg dose.

[3] = Pharmacology studies in animals, stimulation of erythropoiesis; assay type: in vivo, mice; rats, dogs, rabbits and monkeys
[4] = Phase 1 single IV dose study in normal healthy volunteers, pharmacodynamics; assay type: in vivo, human
Source text: as §1, §2

[5] = Phase 1 single IV dose study in normal healthy volunteers, safety; assay type: in vivo, human
Source text: as §1, §2

[6] = Pharmacokinetic studies in rats; assay type: in vivo; conditions: species not stated

With “PEGylated homodimer of peptide monomers (AcG)GLYACHMGPIT(1-nal)VCQPLR(MeG)K (SEQ ID NO: 2); fully synthetic EPO receptor agonist (Ac-GGLYACHMGPIT[1Nal]VCQPLR[Sar]K; disulfide 6-15 (inferred); not fully specified (residue 1); printed as (AcG)GLYACHMGPIT(1-nal)VCQPLR(MeG)K; also: homodimer via branched linker on K21 ε-amino group, PEG attached to linker) [Peptide I]” the “patients reporting adverse events” value ([1]; 60 patients) was 18%, the injection site reaction ([1]; SC) was “no injection site reaction was reported” and the “hemoglobin (Hgb) increase” value ([1]; dosed monthly) was “sustained increase in hemoglobin (Hgb) up to week 22”. The “number of adverse events” value ([1]; human, in vivo) was 36, the “relation of adverse events to study drug” value ([1]; human, in vivo) was “not related to study drug” and the “tolerability of multiple monthly subcutaneous injections” value ([1]; human, in vivo, sc) was “well-tolerated”. The correction of anaemia ([1]; monthly dosing) was “correction of anaemia in patients by week eight”, the “AUC(0-infinity) relationship with dose” value [2] was “evidence of non-linearity at the highest dose of 0.1 mg/kg; also recorded: nonlinear at the 0.1 mg/kg dose” and the “rise in reticulocytes and RBCs as measured by hemoglobin levels” value ([3]; rats and monkeys) was “dose proportional”. For the same substance, the stimulation of erythropoiesis ([3]; single or repeat dose, mice, rats (normocythemic and nephrectomized), dogs, rabbits, monkeys) was “dose-dependent activity”, the “increase in hemoglobin associated with the PAD” value ([4]; 0.1 mg/kg) was at least 1.0 g/dL and the “average maximum increase in hemoglobin from baseline” value ([4]; 0.1 mg/kg, 10 recipients) was 1.36 ± 0.39 g/dL. For the same substance, the “average hemoglobin levels at Day 42” value ([4]; 0.1 mg/kg, Day 42) was “returned to baseline”, the “difference in change from baseline hemoglobin versus placebo” value ([4]; 0.1 mg/kg, Day 42 as throughout the study) was at least 0.5 g/dL and the “time of maximum reticulocyte counts postdose” value ([4]; all dose cohorts) was “approximately 7 days”. For the same substance, the “changes in other pharmacodynamic parameters (red cell count, hematocrit, ferritin, reticulocyte hemoglobin content, soluble transferrin receptor, EPO)” value ([4]; human, in vivo) was “consistent with stimulation of erythropoiesis”, the “hemoglobin response and change from baseline (mean and maximum)” value ([4]; over 28 days post-dose) was “dose-dependent increases” and the “Reticulocyte count (absolute number and percent)” value ([4]; single IV 0.025, 0.05, 0.1 mg/kg) was “dose-dependent increase”. The “pharmacologically active dose (PAD)” value ([4]; single IV dose, NHV) was 0.1 mg/kg, the “Serum EPO levels” value ([4]; with increasing dose) was “transiently decreased” and the “abdominal pain, frequency” value ([5]; Peptide I recipients) was 10.0%. For the same substance, the “headache, frequency” value ([5]; Peptide I recipients) was 20.0%, the “nasopharyngitis, frequency” value ([5]; Peptide I recipients) was 10.0% and the “nausea, frequency” value ([5]; Peptide I recipients) was 10.0%. The “subjects who experienced adverse events” value ([5]; Peptide I recipients) was 11 of 20, the “Serious Adverse Events” value ([5]; human, in vivo) was “no Serious Adverse Events” and the “antibodies specific to Peptide I” value ([5]; human, in vivo) was “None of the subjects in this trial developed antibodies”. The “vital signs, electrocardiograms (ECGs) or laboratory values” ([5]; human, in vivo) was “no clinically significant changes”, the safety and tolerability ([5]; single IV doses of 0.025, 0.05, or 0.1 mg/kg) was “safe and well tolerated” and the Biodistribution [6] was “primarily to the plasma fraction”.
